Values quoted from earlier work, collected in article PMC2947981.
Values joined by “and” are separate entries in the source; they are usually repeats but may differ in a detail not shown here. Identical values can stand only once. Like-named read-outs stand apart in the source and are kept apart here.

What was measured:
[1] = biological target: Factor VIIIa (Homo sapiens) (UniProt P00451)
[2] = biological target: Factor VIIIa (Homo sapiens) (UniProt P00451); remark: listed apart in the source
[3] = biological target: Factor VIIIa (Homo sapiens) (UniProt P00451); remark: listed apart in the source
[4] = biological target: Factor VIIIa (Homo sapiens) (UniProt P00451); remark: listed apart in the source
[5] = biological target: Factor VIIIa2 A2 (Homo sapiens) (UniProt P00451)
[6] = biological target: Factor IXa (Homo sapiens) (UniProt P00740)
[7] = biological target: Factor IXa (Homo sapiens) (UniProt P00740); remark: listed apart in the source
[8] = biological target: Factor IXa (Homo sapiens) (UniProt P00740); remark: listed apart in the source
[9] = biological target: Factor VIIIa A2 A2 (Homo sapiens) (UniProt P00451)
[10] = biological target: Corn trypsin inhibitor (CTI) (Zea mays) (UniProt P01088)
Chain of UniProt P01088 (P01088 29-138): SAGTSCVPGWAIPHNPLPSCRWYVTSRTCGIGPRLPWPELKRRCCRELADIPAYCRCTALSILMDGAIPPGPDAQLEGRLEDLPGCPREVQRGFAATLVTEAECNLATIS

TFPI (Homo sapiens) [11] = biological target: TFPI (Homo sapiens) (UniProt P10646)
Chain of UniProt P10646 (P10646 29-304): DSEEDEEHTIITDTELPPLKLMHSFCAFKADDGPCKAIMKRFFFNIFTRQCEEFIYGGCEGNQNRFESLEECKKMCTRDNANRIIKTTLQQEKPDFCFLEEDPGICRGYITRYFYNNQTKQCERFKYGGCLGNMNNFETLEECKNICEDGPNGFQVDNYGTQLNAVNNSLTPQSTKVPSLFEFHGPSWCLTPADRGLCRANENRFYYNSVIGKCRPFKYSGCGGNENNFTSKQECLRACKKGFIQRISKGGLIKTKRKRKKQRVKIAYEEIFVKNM

TFPI (Homo sapiens) [12] = biological target: TFPI (Homo sapiens) (UniProt P10646); remark: listed apart in the source
Factor Va (Homo sapiens) [13] = biological target: Factor Va (Homo sapiens) (UniProt P12259)
Chain of UniProt P12259 (P12259 29-737, chain 1 of 2): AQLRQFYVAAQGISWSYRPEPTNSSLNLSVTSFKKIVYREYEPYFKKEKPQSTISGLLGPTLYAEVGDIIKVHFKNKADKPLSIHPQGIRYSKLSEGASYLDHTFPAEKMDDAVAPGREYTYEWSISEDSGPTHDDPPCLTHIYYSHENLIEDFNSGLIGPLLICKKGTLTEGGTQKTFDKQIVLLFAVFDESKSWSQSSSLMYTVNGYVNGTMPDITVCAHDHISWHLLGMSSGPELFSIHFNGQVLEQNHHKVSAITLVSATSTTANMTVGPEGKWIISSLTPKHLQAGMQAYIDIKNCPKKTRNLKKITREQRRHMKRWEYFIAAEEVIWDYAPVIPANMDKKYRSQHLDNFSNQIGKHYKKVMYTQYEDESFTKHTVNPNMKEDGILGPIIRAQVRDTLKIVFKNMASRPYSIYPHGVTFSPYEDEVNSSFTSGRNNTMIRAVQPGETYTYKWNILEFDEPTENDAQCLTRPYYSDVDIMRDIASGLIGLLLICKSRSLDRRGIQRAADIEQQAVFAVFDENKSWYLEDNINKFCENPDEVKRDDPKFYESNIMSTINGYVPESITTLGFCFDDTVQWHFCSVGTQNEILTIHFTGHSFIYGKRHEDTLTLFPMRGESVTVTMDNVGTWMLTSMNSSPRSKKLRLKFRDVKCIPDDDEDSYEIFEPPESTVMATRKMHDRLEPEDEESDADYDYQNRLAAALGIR
Chain of UniProt P12259 (P12259 1574-2224, chain 2 of 2): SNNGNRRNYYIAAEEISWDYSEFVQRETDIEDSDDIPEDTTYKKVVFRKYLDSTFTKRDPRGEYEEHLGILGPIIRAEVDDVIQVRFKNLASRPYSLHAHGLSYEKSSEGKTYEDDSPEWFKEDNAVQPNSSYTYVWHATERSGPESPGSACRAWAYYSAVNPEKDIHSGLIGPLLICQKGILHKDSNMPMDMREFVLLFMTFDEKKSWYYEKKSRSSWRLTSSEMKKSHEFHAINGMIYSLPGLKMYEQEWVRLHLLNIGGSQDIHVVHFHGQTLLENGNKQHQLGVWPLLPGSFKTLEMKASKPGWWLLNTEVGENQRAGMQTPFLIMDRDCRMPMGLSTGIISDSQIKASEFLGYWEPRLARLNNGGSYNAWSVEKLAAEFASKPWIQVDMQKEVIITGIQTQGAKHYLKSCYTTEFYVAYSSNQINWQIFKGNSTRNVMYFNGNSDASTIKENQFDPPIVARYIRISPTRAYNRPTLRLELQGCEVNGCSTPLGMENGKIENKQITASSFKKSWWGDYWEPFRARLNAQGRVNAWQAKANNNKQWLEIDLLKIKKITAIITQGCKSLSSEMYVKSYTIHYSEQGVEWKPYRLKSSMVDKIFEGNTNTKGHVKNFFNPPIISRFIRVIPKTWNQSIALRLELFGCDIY

TFPI (Homo sapiens) [14] = biological target: TFPI (Homo sapiens) (UniProt P10646); remark: listed apart in the source
Factor Va (Homo sapiens) [15] = biological target: Factor Va (Homo sapiens) (UniProt P12259); remark: listed apart in the source
[16] = biological target: Thrombin (IIa) (Homo sapiens) (UniProt P00734)
[17] = biological target: Factor VIIa (Homo sapiens) (UniProt P08709)
Chain of UniProt P08709 (P08709 61-212, chain 1 of 2): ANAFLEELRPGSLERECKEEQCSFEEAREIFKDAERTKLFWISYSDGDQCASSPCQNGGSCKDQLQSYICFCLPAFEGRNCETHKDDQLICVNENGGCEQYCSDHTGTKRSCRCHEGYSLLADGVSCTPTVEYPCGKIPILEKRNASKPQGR
Chain of UniProt P08709 (P08709 213-466, chain 2 of 2): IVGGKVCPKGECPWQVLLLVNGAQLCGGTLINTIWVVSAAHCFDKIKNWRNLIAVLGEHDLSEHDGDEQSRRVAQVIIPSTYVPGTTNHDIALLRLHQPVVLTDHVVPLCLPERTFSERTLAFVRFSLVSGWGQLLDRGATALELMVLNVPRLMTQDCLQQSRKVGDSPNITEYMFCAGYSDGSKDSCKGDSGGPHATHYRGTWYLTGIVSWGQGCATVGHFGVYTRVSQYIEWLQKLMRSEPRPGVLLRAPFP

Factor Xa (Homo sapiens) = Factor Xa (Homo sapiens) (UniProt P00742)
TFPI (Homo sapiens) [18] = biological target: TFPI (Homo sapiens) (UniProt P10646); remark: listed apart in the source

Chain of Factor VIIIa (P00451 1668-2351): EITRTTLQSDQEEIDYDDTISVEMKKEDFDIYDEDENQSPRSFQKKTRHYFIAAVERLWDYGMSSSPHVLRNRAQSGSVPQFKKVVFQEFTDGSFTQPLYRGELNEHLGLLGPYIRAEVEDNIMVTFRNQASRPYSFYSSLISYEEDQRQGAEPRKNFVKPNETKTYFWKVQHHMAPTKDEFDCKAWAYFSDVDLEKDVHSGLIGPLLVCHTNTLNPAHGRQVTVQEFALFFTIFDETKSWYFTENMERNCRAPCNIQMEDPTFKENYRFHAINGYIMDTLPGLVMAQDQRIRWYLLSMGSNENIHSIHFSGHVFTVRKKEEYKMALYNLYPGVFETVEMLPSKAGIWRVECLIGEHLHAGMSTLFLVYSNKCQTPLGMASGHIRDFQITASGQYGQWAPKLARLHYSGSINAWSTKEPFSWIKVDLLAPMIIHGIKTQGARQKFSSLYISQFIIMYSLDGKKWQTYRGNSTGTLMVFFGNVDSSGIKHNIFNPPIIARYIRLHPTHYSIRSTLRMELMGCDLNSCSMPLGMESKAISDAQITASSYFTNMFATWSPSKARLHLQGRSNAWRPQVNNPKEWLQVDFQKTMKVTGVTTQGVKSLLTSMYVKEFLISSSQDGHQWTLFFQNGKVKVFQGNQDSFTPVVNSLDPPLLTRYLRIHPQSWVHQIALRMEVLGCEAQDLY

Substance: Factor IXa (from UniProt P00740)
- Kd [1]: 0.074 nM
- Kd [2]: 351 nM
- Kd [3]: 4 nM
- Kd [4]: 0.55 nM

Substance: Factor VIIIa1-L A1-L (from UniProt P00451)
- Kd [5]: 270 nM

Substance: Factor VIIIa (from UniProt P00451)
- Kd [6]: 0.55 nM
- Kd [7]: 4 nM
- Kd [8]: 0.074 nM

Substance: Factor VIIIa A1/A3-C1-C2 A1/A3-C1-C2 (from UniProt P00451)
- Kd [9]: 260 nM

Substance: Factor XIIa (from UniProt P00748)
- Ki [10]: 24 nM

Substance: Factor Xa (from UniProt P00742)
- Kd (TFPI (Homo sapiens) [11]): 0.4 nM
- Ki (TFPI (Homo sapiens) [12]): 0.0852 nM
- Kd (Factor Va (Homo sapiens) [13]): 3.3 nM and 0.5 nM
- Ki (TFPI (Homo sapiens) [14]): 0.0652 nM
- Kd (Factor Va (Homo sapiens) [15]): 0.03 nM

Substance: Fibrin II (Fbn2) (from UniProt P02671)
- Kd [16]: 10000 nM

Substance: GP1bα (from UniProt P07359)
- Kd [17]: 20 nM

Substance: TF-VIIa complex (from UniProt P13726)
- Kd (Factor Xa (Homo sapiens)): 860 nM

Substance: TF-VIIa-Xa complex (from UniProt P13726)
- Kd (TFPI (Homo sapiens) [18]): 0.00034 nM
